Experimental data reported in article PMC3173227 (The Journal of Biological Chemistry, 2011).
One block for each molecule: values may come before it.

B1: human FANCL RING domain (residues 289-375) (domain or fragment, UniProt Q9NW38 289-375, looked up)
chain: EIDFPARAILEKSDFTMDCGICYAYQLDGTIPDQVCDNSQCGQPFHQICLYEWLRGLLTSRQSFNIIFGECPYCSKPITLKMSGRKH
B2: human Ube2T (enzyme, UniProt Q9NPD8 1-197, looked up)
chain: MQRASRLKRELHMLATEPPPGITCWQDKDQMDDLRAQILGGANTPYEKGVFKLEVIIPERYPFEPPQIRFLTPIYHPNIDSAGRICLDVLKLPPKGAWRPSLNIATVLTSIQLLMSEPNPDDPLMADISSEFKYNKPAFLKNARQWTEKHARQKQKADEEEMLDNLPEAGDSRVHNSTQKRKASQLVGIEKKFHPDV

How the values were obtained:
[1] = molecular target: human FANCL RING domain (residues 289-375) (human) (UniProt Q9NW38); test: ITC
human Ube2T = molecular target: B2; test: ITC
[2] = molecular target: B1; test: SEC

Kd [1]: 5000 nM
Molecule: Ube2T-F63A (from UniProt Q9NPD8 1-197) (enzyme)

Molecule: B1
Kd (human Ube2T): 454 nM

Molecule: B2
stoichiometry N [2]: 1
